# Assay results published in patent US20140087995A1 (published 2014).
# Numbered stars: 1 amine (or outer) side, 2 acyl side, 3 side chain; on linkers, the order of the positions; unused ones are H or OH. Bridge positions count the residues as written; N and C are the ends. Side chains are listed from the residue outwards. Ends that are not written are not given here. * marks the point of attachment. C20 diacid = O=C(O)CCCCCCCCCCCCCCCCCCC(=O)*; γGlu = O=C(O)[C@H](CCC(=O)[*:2])N[*:1]; AEEA = NCCOCCOCC(=O)O
# T1: rat calcitonin receptor (rat, UniProt P32214 25-516)
# T1 construct: whole, on cells; Cell membranes of transiently transfected BHK tk'ts 13 cells (Assay VIII); also called rCTR; rCT
# T1 sequence (looked up): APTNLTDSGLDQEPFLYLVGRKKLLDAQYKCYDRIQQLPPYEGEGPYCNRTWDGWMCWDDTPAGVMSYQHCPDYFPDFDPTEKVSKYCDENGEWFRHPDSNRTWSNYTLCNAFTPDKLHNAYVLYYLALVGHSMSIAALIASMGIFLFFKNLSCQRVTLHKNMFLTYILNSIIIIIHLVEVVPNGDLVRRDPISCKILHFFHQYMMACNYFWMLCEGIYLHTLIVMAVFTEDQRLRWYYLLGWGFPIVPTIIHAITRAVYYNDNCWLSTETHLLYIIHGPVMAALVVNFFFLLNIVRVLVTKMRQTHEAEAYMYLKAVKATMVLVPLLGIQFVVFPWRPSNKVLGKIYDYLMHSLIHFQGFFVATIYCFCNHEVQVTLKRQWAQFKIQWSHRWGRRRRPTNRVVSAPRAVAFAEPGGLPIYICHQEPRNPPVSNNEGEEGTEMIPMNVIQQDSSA
# T2: human calcitonin receptor (human, UniProt P30988 25-474)
# T2 construct: whole, on cells; Cell membranes of a stably transfected BHK cell line (Assay VII); also called hCTR; hCT
# T2 sequence (looked up): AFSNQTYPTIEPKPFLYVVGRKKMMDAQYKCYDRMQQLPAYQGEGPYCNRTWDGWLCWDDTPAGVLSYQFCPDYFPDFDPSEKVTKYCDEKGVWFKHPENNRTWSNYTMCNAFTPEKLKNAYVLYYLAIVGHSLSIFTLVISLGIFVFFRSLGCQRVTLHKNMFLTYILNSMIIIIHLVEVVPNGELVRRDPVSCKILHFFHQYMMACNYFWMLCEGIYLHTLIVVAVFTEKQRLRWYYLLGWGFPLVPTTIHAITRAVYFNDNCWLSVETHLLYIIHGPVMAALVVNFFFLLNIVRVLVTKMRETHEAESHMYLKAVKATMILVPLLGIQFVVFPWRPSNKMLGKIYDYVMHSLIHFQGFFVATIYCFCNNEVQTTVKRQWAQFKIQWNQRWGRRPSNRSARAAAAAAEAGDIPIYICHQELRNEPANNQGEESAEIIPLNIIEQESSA
# T3: rat amylin receptor (rat calcitonin receptor + rat RAMP 3) (rat, UniProt P32214 25-516; Q9JJ73 23-147)
# T3 construct: whole, on cells; Cell membranes of transiently transfected BHK tk'ts 13 cells (Assay VI); also called rAmylin-R; rat amylin 3(a) receptor
# T3 sequence (looked up) 1: T1 sequence (looked up)
# T3 sequence (looked up) 2: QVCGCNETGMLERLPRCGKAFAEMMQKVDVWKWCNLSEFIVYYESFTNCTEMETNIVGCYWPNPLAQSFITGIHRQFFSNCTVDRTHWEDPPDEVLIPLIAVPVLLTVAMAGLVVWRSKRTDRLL
# B1: N^α1-[(4S)-4-carboxy-4-(19-carboxynonadecanoylamino)butanoyl]-[Glu14,Arg17,Pro21,Pro25,Pro28,Pro29]-h-amylin (peptide)
# peptide: {C20 diacid-γGlu}-KCNTATCATQRLAEFLRHSSPNFGPILPPTNVGSNTY-NH2
# modifications: disulfide 2-7
# SMILES: CC[C@H](C)[C@H](NC(=O)[C@@H]1CCCN1C(=O)CNC(=O)[C@H](Cc1ccccc1)NC(=O)[C@H](CC(N)=O)NC(=O)[C@@H]1CCCN1C(=O)[C@H](CO)NC(=O)[C@H](CO)NC(=O)[C@H](Cc1c[nH]cn1)NC(=O)[C@H](CCCNC(=N)N)NC(=O)[C@H](CC(C)C)NC(=O)[C@H](Cc1ccccc1)NC(=O)[C@H](CCC(=O)O)NC(=O)[C@H](C)NC(=O)[C@H](CC(C)C)NC(=O)[C@H](CCCNC(=N)N)NC(=O)[C@H](CCC(N)=O)NC(=O)[C@@H](NC(=O)[C@H](C)NC(=O)[C@@H]1CSSC[C@H](NC(=O)[C@H](CCCCN)NC(=O)CC[C@H](NC(=O)CCCCCCCCCCCCCCCCCCC(=O)O)C(=O)O)C(=O)N[C@@H](CC(N)=O)C(=O)N[C@@H]([C@@H](C)O)C(=O)N[C@@H](C)C(=O)N[C@@H]([C@@H](C)O)C(=O)N1)[C@@H](C)O)C(=O)N[C@@H](CC(C)C)C(=O)N1CCC[C@H]1C(=O)N1CCC[C@H]1C(=O)N[C@H](C(=O)N[C@@H](CC(N)=O)C(=O)N[C@H](C(=O)NCC(=O)N[C@@H](CO)C(=O)N[C@@H](CC(N)=O)C(=O)N[C@H](C(=O)N[C@@H](Cc1ccc(O)cc1)C(N)=O)[C@@H](C)O)C(C)C)[C@@H](C)O
# notes: Acylated analogue of human amylin; also called compound 6
# B2: N^α1-[2-[2-[2-[[2-[2-[2-[[(4S)-4-carboxy-4-(19-carboxynonadecanoylamino)butanoyl]amino]ethoxy]ethoxy]acetyl]amino]ethoxy]ethoxy]acetyl]-[Arg17,Pro21,Pro27]-h-am … (peptide)
# peptide: KCNTATCATQRLANFLRHSSPNFGAIPSSTNVGSNTY
# modifications: C20 diacid-gGlu-2xOEG on alpha-amino of the N-terminal residue; Cys2-Cys7 disulfide; C-terminal amide (as human amylin)
# notes: Acylated analogue of human amylin; also called compound 24
# B3: N^ε1-[(4S)-4-carboxy-4-[[(4S)-4-carboxy-4-(19-carboxynonadecanoylamino)butanoyl]amino]butanoyl]-[Asp14,Arg17,Pro21,Pro27,Asp35]-h-amylin (peptide)
# peptide: K([γGlu-γGlu-C20 diacid])CNTATCATQRLADFLRHSSPNFGAIPSSTNVGSDTY-NH2
# modifications: disulfide 2-7; N-terminus assumed
# SMILES: CC[C@H](C)[C@H](NC(=O)[C@H](C)NC(=O)CNC(=O)[C@H](Cc1ccccc1)NC(=O)[C@H](CC(N)=O)NC(=O)[C@@H]1CCCN1C(=O)[C@H](CO)NC(=O)[C@H](CO)NC(=O)[C@H](Cc1c[nH]cn1)NC(=O)[C@H](CCCNC(=N)N)NC(=O)[C@H](CC(C)C)NC(=O)[C@H](Cc1ccccc1)NC(=O)[C@H](CC(=O)O)NC(=O)[C@H](C)NC(=O)[C@H](CC(C)C)NC(=O)[C@H](CCCNC(=N)N)NC(=O)[C@H](CCC(N)=O)NC(=O)[C@@H](NC(=O)[C@H](C)NC(=O)[C@@H]1CSSC[C@H](NC(=O)[C@@H](N)CCCCNC(=O)CC[C@H](NC(=O)CC[C@H](NC(=O)CCCCCCCCCCCCCCCCCCC(=O)O)C(=O)O)C(=O)O)C(=O)N[C@@H](CC(N)=O)C(=O)N[C@@H]([C@@H](C)O)C(=O)N[C@@H](C)C(=O)N[C@@H]([C@@H](C)O)C(=O)N1)[C@@H](C)O)C(=O)N1CCC[C@H]1C(=O)N[C@@H](CO)C(=O)N[C@@H](CO)C(=O)N[C@H](C(=O)N[C@@H](CC(N)=O)C(=O)N[C@H](C(=O)NCC(=O)N[C@@H](CO)C(=O)N[C@@H](CC(=O)O)C(=O)N[C@H](C(=O)N[C@@H](Cc1ccc(O)cc1)C(N)=O)[C@@H](C)O)C(C)C)[C@@H](C)O
# notes: Acylated analogue of human amylin; also called compound 2
# B4: N{Alpha-1}-[(4S)-4-carboxy-4-(19-carboxynonadecanoylamino)butanoyl]-[Glu14,Arg17,Pro21,Pro27,Lys34]-h-amylin (peptide)
# peptide: {C20 diacid-γGlu}-KCNTATCATQRLAEFLRHSSPNFGAIPSSTNVGKNTY-NH2
# modifications: disulfide 2-7
# SMILES: CC[C@H](C)[C@H](NC(=O)[C@H](C)NC(=O)CNC(=O)[C@H](Cc1ccccc1)NC(=O)[C@H](CC(N)=O)NC(=O)[C@@H]1CCCN1C(=O)[C@H](CO)NC(=O)[C@H](CO)NC(=O)[C@H](Cc1c[nH]cn1)NC(=O)[C@H](CCCNC(=N)N)NC(=O)[C@H](CC(C)C)NC(=O)[C@H](Cc1ccccc1)NC(=O)[C@H](CCC(=O)O)NC(=O)[C@H](C)NC(=O)[C@H](CC(C)C)NC(=O)[C@H](CCCNC(=N)N)NC(=O)[C@H](CCC(N)=O)NC(=O)[C@@H](NC(=O)[C@H](C)NC(=O)[C@@H]1CSSC[C@H](NC(=O)[C@H](CCCCN)NC(=O)CC[C@H](NC(=O)CCCCCCCCCCCCCCCCCCC(=O)O)C(=O)O)C(=O)N[C@@H](CC(N)=O)C(=O)N[C@@H]([C@@H](C)O)C(=O)N[C@@H](C)C(=O)N[C@@H]([C@@H](C)O)C(=O)N1)[C@@H](C)O)C(=O)N1CCC[C@H]1C(=O)N[C@@H](CO)C(=O)N[C@@H](CO)C(=O)N[C@H](C(=O)N[C@@H](CC(N)=O)C(=O)N[C@H](C(=O)NCC(=O)N[C@@H](CCCCN)C(=O)N[C@@H](CC(N)=O)C(=O)N[C@H](C(=O)N[C@@H](Cc1ccc(O)cc1)C(N)=O)[C@@H](C)O)C(C)C)[C@@H](C)O
# notes: Acylated analogue of human amylin; also called compound 36
# B5: N^ε1-[2-[2-[2-[[(4S)-4-carboxy-4-(19-carboxynonadecanoylamino)butanoyl]amino]ethoxy]ethoxy]acetyl]-[Arg17,Pro21,Pro27]-h-amylin (peptide)
# peptide: K([AEEA-γGlu-C20 diacid])CNTATCATQRLANFLRHSSPNFGAIPSSTNVGSNTY-NH2
# modifications: disulfide 2-7; N-terminus assumed
# SMILES: CC[C@H](C)[C@H](NC(=O)[C@H](C)NC(=O)CNC(=O)[C@H](Cc1ccccc1)NC(=O)[C@H](CC(N)=O)NC(=O)[C@@H]1CCCN1C(=O)[C@H](CO)NC(=O)[C@H](CO)NC(=O)[C@H](Cc1c[nH]cn1)NC(=O)[C@H](CCCNC(=N)N)NC(=O)[C@H](CC(C)C)NC(=O)[C@H](Cc1ccccc1)NC(=O)[C@H](CC(N)=O)NC(=O)[C@H](C)NC(=O)[C@H](CC(C)C)NC(=O)[C@H](CCCNC(=N)N)NC(=O)[C@H](CCC(N)=O)NC(=O)[C@@H](NC(=O)[C@H](C)NC(=O)[C@@H]1CSSC[C@H](NC(=O)[C@@H](N)CCCCNC(=O)COCCOCCNC(=O)CC[C@H](NC(=O)CCCCCCCCCCCCCCCCCCC(=O)O)C(=O)O)C(=O)N[C@@H](CC(N)=O)C(=O)N[C@@H]([C@@H](C)O)C(=O)N[C@@H](C)C(=O)N[C@@H]([C@@H](C)O)C(=O)N1)[C@@H](C)O)C(=O)N1CCC[C@H]1C(=O)N[C@@H](CO)C(=O)N[C@@H](CO)C(=O)N[C@H](C(=O)N[C@@H](CC(N)=O)C(=O)N[C@H](C(=O)NCC(=O)N[C@@H](CO)C(=O)N[C@@H](CC(N)=O)C(=O)N[C@H](C(=O)N[C@@H](Cc1ccc(O)cc1)C(N)=O)[C@@H](C)O)C(C)C)[C@@H](C)O
# notes: Acylated analogue of human amylin; also called compound 41
# Molecular target: T1, rat calcitonin receptor
# Test: SPA competition vs 125I-calcitonin, membranes with rat CTR (Assay VIII)
row,Binder,IC50 [nM]
1,B1,51.5
2,B2,350
3,B3,108
4,B4,60.1
5,B5,74.1

# Molecular target: T1, rat calcitonin receptor
# Test: ratio IC50 rat calcitonin receptor / IC50 rat amylin receptor
row,Binder,Ratio rCT/rAmylin binding
1,B1,21.7
2,B2,116
3,B3,366
4,B4,32.4
5,B5,54

# Molecular target: T2, human calcitonin receptor
# Test: ratio IC50 human calcitonin receptor / IC50 human amylin receptor
# Outline: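 Scintillation proximity competition binding on cell membranes at 35 ng/μL with SPA beads, in 50 mM Hepes pH 7.4, 1 mM CaCl2, 5 mM MgCl₂, 0.1% OA, 0.02% Tween20. Incubated 120 min at 25° C with shaking. IC₅₀ from one-site competition fit.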
row,Binder,Ratio hCT/hAmylin binding
1,B1,20
2,B2,90
3,B3,47.5
4,B4,15.7
5,B5,49.9

# Molecular target: T3, rat amylin receptor (rat calcitonin …)
# Test: SPA competition vs 125I-rat amylin, membranes with rat CTR + rat RAMP3 (Assay VI)
row,Binder,IC50 [nM]
1,B1,2.37
2,B2,3.01
3,B3,0.295
4,B4,1.86
5,B5,1.37
